From patent US12329823B2 (The Scripps Research Institute, priority 2021, dated 2025) come the findings set out here.

For data set [1], the target named is T1, human GIPR (Homo sapiens, UniProt P48546).
T1 construct: expressed in transfected cells; host or cells: HEK293 (CRE-HEK293, HEK293-GIPR-CRE)
T1 sequence (P48546 22-466): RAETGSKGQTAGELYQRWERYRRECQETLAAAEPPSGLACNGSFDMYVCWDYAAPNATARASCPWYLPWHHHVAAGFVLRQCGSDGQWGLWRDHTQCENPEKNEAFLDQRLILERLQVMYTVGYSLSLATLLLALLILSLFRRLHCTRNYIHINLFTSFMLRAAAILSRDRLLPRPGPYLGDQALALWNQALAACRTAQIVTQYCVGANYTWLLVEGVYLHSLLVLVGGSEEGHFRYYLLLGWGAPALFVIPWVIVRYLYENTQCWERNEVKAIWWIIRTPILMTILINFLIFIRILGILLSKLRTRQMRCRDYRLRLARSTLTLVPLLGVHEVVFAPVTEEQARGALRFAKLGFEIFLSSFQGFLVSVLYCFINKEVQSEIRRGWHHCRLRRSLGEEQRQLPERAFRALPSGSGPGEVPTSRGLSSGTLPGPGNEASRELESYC
Briefly: In vitro receptor activation reporter assay (CRE-Luc, HEK293-GIPR-CRE cells; receptor-mediated cAMP synthesis). It is filed as cell-based. The settings on record: unnumbered table.

Data set [2] is described as follows: Pharmacokinetics in CD-1 mouse, I.V. or S.C. 1 mg/kg, plasma concentration by LC-MS.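 On all read-outs here: peptide levels in plasma quantified by LC-MS across multiple sampling times.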 As to conditions: individual animals; for AUC(0-inf): AUCINF_pred; for MRT inf / MRT last: mouse, in vivo; for MRT inf: MRTINF_pred; for MRT last: MRTlast.
Description: The peptide plasma concentration at various time points was determined using LC-MS.
Setting [3] is: average of runs, read-out: EC50 GIPR average.
[4] abbreviates: Table 15, I.V. 1 mg/kg, 1 mg/kg.
The mark [5] stands for this setting: iv, 1 mg/kg, Table 15, I.V. 1 mg/kg.

Several values for one entry are separate records, joined by “and”; a condition that tells them apart may be missing. Identical values can stand only once. Like-named read-outs stand apart in the source and are kept apart here. Numbered stars: 1 amine (or outer) side, 2 acyl side, 3 side chain; on linkers, the order of the positions; unused ones are H or OH. Bridge positions count the residues as written; N and C are the ends. Square brackets hold non-standard residues; d marks the D form. Peptide text beside a SMILES is read from it. X2 = O=C(O)CCCCCCCCCCCCCCCCCCC(=O)N[C@@H](CCCCNC(=O)CCOCCOCCNC(=O)CCOCCOCCNC(=O)CCC(=O)N(CCNC(=O)C[*:1])CCNC(=O)C[*:2])C(=O)O; Aib = CC(C)(N)C(=O)O

As for `CC[C@H](C)[C@H](NC(=O)[C@H](CC(C)C)NC(=O)[C@H](Cc1c[nH]c2ccccc12)NC(=O)[C@H](CC(N)=O)NC(=O)[C@@H](NC(=O)[C@H](Cc1ccccc1)NC(=O)[C@@H]1CSCC(=O)NCCN(C(=O)CCC(=O)NCCOCCOCCC(=O)NCCOCCOCCC(=O)NCCCC[C@H](NC(=O)CCCCCCCCCCCCCCCCCCC(=O)O)C(=O)O)CCNC(=O)CSC[C@H](NC(=O)[C@H](Cc2ccc(O)cc2)NC(=O)[C@@H](NC(=O)[C@H](CO)NC(=O)[C@H](Cc2ccc(O)cc2)NC(=O)[C@H](CC(=O)O)NC(=O)[C@H](CO)NC(=O)[C@@H](NC(=O)[C@H](Cc2ccc(O)cc2)NC(=O)[C@@H](NC(=O)CNC(=O)[C@H](CCC(=O)O)NC(=O)C(C)(C)NC(=O)[C@@H](N)Cc2ccc(O)cc2)[C@@H](C)O)[C@@H](C)O)[C@@H](C)CC)C(=O)N[C@@H](CC(=O)O)C(=O)N[C@@H](CCCCN)C(=O)N[C@@H](CCC(N)=O)C(=O)N[C@@H](C)C(=O)N[C@@H](C)C(=O)NC(C)(C)C(=O)N1)C(C)C)C(=O)N[C@@H](C)C(=O)NCC(=O)NCC(=O)N1CCC[C@H]1C(=O)N[C@@H](CO)C(=O)N[C@@H](CO)C(=O)NCC(=O)N[C@@H](C)C(=O)N1CCC[C@H]1C(=O)N1CCC[C@H]1C(=O)N1CCC[C@H]1C(=O)N[C@@H](CO)C(N)=O` [6Y, 27I, C(14-21)-C20L5A, YAibEGT-YTSDY-SIYXD-KQAAAib-XFVNW-LIAGG-PSSGA-PPPS-NH2 (where each X is C) (SEQ ID NO: 58)] (H-Y[Aib]EGTYTSDYSIYCDKQAA[Aib]CFVNWLIAGGPSSGAPPPS-NH2; linker 14-21 via X2), the EC50 in data set [1] (setting [3]) turned out to be 560 pM; in data set [1] (run 03/26, read-out: EC50 GIPR 03/26), 600 pM.

With `CC[C@H](C)[C@H](NC(=O)[C@H](CC(C)C)NC(=O)[C@H](Cc1c[nH]c2ccccc12)NC(=O)[C@@H]1CSCC(=O)NCCN(C(=O)CCC(=O)NCCOCCOCCC(=O)NCCOCCOCCC(=O)NCCCC[C@H](NC(=O)CCCCCCCCCCCCCCCCCCC(=O)O)C(=O)O)CCNC(=O)CSC[C@H](NC(=O)[C@H](CCCCN)NC(=O)[C@H](CC(=O)O)NC(=O)[C@H](CC(C)C)NC(=O)[C@H](Cc2ccc(O)cc2)NC(=O)[C@@H](NC(=O)[C@H](CO)NC(=O)[C@H](Cc2ccc(O)cc2)NC(=O)[C@H](CC(=O)O)NC(=O)[C@H](CO)NC(=O)[C@@H](NC(=O)[C@H](Cc2ccc(O)cc2)NC(=O)[C@@H](NC(=O)CNC(=O)[C@H](CCC(=O)O)NC(=O)C(C)(C)NC(=O)[C@@H](N)Cc2ccc(O)cc2)[C@@H](C)O)[C@@H](C)O)[C@@H](C)CC)C(=O)N[C@@H](C)C(=O)N[C@@H](C)C(=O)NC(C)(C)C(=O)N[C@@H](CCC(=O)O)C(=O)N[C@@H](Cc2ccccc2)C(=O)N[C@@H](C(C)C)C(=O)N1)C(=O)N[C@@H](C)C(=O)NCC(=O)NCC(=O)N1CCC[C@H]1C(=O)N[C@@H](CO)C(=O)N[C@@H](CO)C(=O)NCC(=O)N[C@@H](C)C(=O)N1CCC[C@H]1C(=O)N1CCC[C@H]1C(=O)N1CCC[C@H]1C(=O)N[C@@H](CO)C(N)=O` [6Y, 27I, C(17-24)-C20L5A, YAibEGT-YTSDY-SIYLD-KXAAAib-EFVXW-LIAGG-PSSGA-PPPS-NH2 (where each X is C) (SEQ ID NO: 59)] (H-Y[Aib]EGTYTSDYSIYLDKCAA[Aib]EFVCWLIAGGPSSGAPPPS-NH2; linker 17-24 via X2), the EC50 in data set [1] (setting [3]) is 260 pM.

In data set [2] (CD-1, mouse, plasma, iv, 1 mg/kg, AUC0_24, Table 15, I.V. 1 mg/kg), `CC[C@H](C)[C@H](NC(=O)[C@H](CC(C)C)NC(=O)[C@H](Cc1c[nH]c2ccccc12)NC(=O)[C@H](CC(N)=O)NC(=O)[C@@H](NC(=O)[C@H](Cc1ccccc1)NC(=O)[C@@H]1CSCC(=O)NCCN(C(=O)CCC(=O)NCCOCCOCCC(=O)NCCOCCOCCC(=O)NCCCC[C@H](NC(=O)CCCCCCCCCCCCCCCCC(=O)O)C(=O)O)CCNC(=O)CSC[C@H](NC(=O)[C@H](Cc2ccc(O)cc2)NC(=O)[C@@H](NC(=O)[C@H](CO)NC(=O)[C@H](Cc2ccc(O)cc2)NC(=O)[C@H](CC(=O)O)NC(=O)[C@H](CO)NC(=O)[C@@H](NC(=O)[C@H](Cc2ccccc2)NC(=O)[C@@H](NC(=O)CNC(=O)[C@H](CCC(=O)O)NC(=O)C(C)(C)NC(=O)[C@@H](N)Cc2ccc(O)cc2)[C@@H](C)O)[C@@H](C)O)[C@@H](C)CC)C(=O)N[C@@H](CC(=O)O)C(=O)N[C@@H](CCCCN)C(=O)N[C@@H](CCC(N)=O)C(=O)N[C@@H](C)C(=O)N[C@@H](C)C(=O)NC(C)(C)C(=O)N1)C(C)C)C(=O)N[C@@H](C)C(=O)NCC(=O)NCC(=O)N1CCC[C@H]1C(=O)N[C@@H](CO)C(=O)N[C@@H](CO)C(=O)NCC(=O)N[C@@H](C)C(=O)N1CCC[C@H]1C(=O)N1CCC[C@H]1C(=O)N1CCC[C@H]1C(=O)N[C@@H](CO)C(N)=O` [mCMZ370, YAibEGT-FTSDY-SIYXD-KQAAAib-XFVNW-LIAGG-PSSGA-PPPS-NH2 (where each X is C) (SEQ ID NO: 52)] registered an area under the curve (AUC) of 121000 ng·h/mL. In addition, in data set [2] (CD-1, mouse, plasma, iv, 1 mg/kg, AUC last, Table 15, I.V. 1 mg/kg), the area under the curve AUC(0-t) was determined as 148000 ng·h/mL. The AUC(0-inf) in data set [2] (CD-1, mouse, plasma, iv, 1 mg/kg, Table 15, I.V. 1 mg/kg) stood at 149000 ng·h/mL. The compound also registered a C0 in data set [2] (CD-1, mouse, plasma, iv, 1 mg/kg, C0, Table 15, I.V. 1 mg/kg) of 15200 ng/mL. In data set [2] (CD-1, mouse, plasma, iv, 1 mg/kg, Cmax, Table 15, I.V. 1 mg/kg), the Cmax amounted to 14600 ng/mL. Further, the time to peak (Tmax) in data set [2] (CD-1, mouse, plasma, iv, 1 mg/kg, Tmax, Table 15, I.V. 1 mg/kg) was determined as 0.08 h. Also, the Vd in data set [2] (CD-1, mouse, plasma, iv, 1 mg/kg, Vss_pred, Table 15, I.V. 1 mg/kg) was 0.098 L/kg. The Vd in data set [2] (CD-1, mouse, plasma, iv, 1 mg/kg, Vz_pred, Table 15, I.V. 1 mg/kg) worked out at 0.085 L/kg. The compound also had a half-life in data set [2] (CD-1, mouse, plasma, iv, 1 mg/kg, t1/2, Table 15, I.V. 1 mg/kg) of 8.82 h. This compound also had an exposure (AUC) in data set [2] (CD-1, mouse, plasma, sc, 1 mg/kg, AUC0_24, CD-1 mouse, S.C.) of 41900 ng·h/mL. The compound further yielded a total exposure AUC(0-inf) in data set [2] (CD-1, mouse, plasma, sc, 1 mg/kg, S.C.) of 53500 ng·h/mL. The compound further registered an area under the curve (AUC) in data set [2] (CD-1, mouse, plasma, sc, 1 mg/kg, AUCall, S.C.) of 53300 ng·h/mL. In data set [2] (CD-1, mouse, plasma, sc, 1 mg/kg, Cl_Fpred, S.C.), this compound registered a CL/F of 0.24 mL/min/kg. The same compound showed a maximum concentration (Cmax) in data set [2] (CD-1, mouse, plasma, sc, 1 mg/kg, Cmax, S.C.) of 2460 ng/mL. In data set [2] (CD-1, mouse, plasma, sc, 1 mg/kg, t1/2, CD-1 mouse, S.C.), this compound gave a half-life of 7.5 h. In data set [2] (CD-1 mouse, S.C., 1 mg/kg), the AUC0_24 is 44691 ng·h/mL and 63474 ng·h/mL; the AUCINF_pred was 68240 ng·h/mL and 80676 ng·h/mL; the “AUC_% Extrap_pred” value was 0.26% and 0.31% and 0.19%; the AUCall is 68029 ng·h/mL and 80522 ng·h/mL. In addition, in data set [2] (CD-1 mouse, S.C., 1 mg/kg), the “AUMC_% Extrap_pred” value is 1.32% and 1.23% and 0.99%; the Cl_Fpred is 0.06 mL/min/kg; the Cmax was 2221 ng/mL and 3993 ng/mL; the MRTINF_pred was 20.64 h and 15.82 h. For the same compound, in data set [2] (CD-1 mouse, S.C., 1 mg/kg), the MRTlast was 20.45 h and 15.69 h; the Tlast is 72 h; the Tmax is 7 h and 24 h and 3 h; the V_F_pred is 0.2 L/kg and 0.15 L/kg and 0.13 L/kg. In addition, the t1/2 in data set [2] (CD-1 mouse, S.C., 1 mg/kg) is 7.06 h and 7.05 h. Further, the Tlast in data set [2] (Table 15, I.V. 1 mg/kg) came to 72 h. Further, in data set [2] (setting [4]), the AUC0_24 is 107856 ng·h/mL and 85158 ng·h/mL; the AUC last is 127615 ng·h/mL and 102411 ng·h/mL; the AUCINF_pred was 128099 ng·h/mL and 103033 ng·h/mL; the “AUC_% Extrap_pred” value was 0.39% and 0.38% and 0.6%. For the same compound, in data set [2] (setting [4]), the “AUMC_% Extrap_pred” value was 2.24% and 2.36% and 3.79%; the C0 was 8380 ng/mL and 10006 ng/mL; the peak concentration (Cmax) was 8230 ng/mL and 9829 ng/mL; the MRTINF_pred was 13.56 h and 13.74 h. Also, in data set [2] (setting [4]), the MRTlast was 13.29 h and 13.3 h; the Vss_pred was 0.106 L/kg and 0.133 L/kg; the Vz_pred is 0.099 L/kg and 0.138 L/kg; the t1/2 came to 9.87 h. For the same compound, in data set [2] (setting [5]), the mean residence time (MRT inf) amounted to 14.6 h and the MRT last came to 14.3 h. In data set [2] (sc, 1 mg/kg, CD-1 mouse, S.C.), this compound registered a mean residence time (MRT inf) of 16.2 h and an MRT last of 16.1 h.
